Assay results: patent publication US7132248 (dated 2006)

T1: human GALR2 (human)
T1 chain: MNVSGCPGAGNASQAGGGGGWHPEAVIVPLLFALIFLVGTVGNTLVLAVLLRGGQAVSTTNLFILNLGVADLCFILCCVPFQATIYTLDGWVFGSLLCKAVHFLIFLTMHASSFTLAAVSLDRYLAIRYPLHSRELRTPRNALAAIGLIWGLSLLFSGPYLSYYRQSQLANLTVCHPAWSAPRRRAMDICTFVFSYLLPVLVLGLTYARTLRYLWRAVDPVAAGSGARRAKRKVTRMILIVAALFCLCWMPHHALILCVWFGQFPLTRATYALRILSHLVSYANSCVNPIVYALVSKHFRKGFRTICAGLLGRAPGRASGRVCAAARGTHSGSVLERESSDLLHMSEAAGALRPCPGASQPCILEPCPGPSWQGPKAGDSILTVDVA

T2: rat GALR2 (rat)
T2 chain: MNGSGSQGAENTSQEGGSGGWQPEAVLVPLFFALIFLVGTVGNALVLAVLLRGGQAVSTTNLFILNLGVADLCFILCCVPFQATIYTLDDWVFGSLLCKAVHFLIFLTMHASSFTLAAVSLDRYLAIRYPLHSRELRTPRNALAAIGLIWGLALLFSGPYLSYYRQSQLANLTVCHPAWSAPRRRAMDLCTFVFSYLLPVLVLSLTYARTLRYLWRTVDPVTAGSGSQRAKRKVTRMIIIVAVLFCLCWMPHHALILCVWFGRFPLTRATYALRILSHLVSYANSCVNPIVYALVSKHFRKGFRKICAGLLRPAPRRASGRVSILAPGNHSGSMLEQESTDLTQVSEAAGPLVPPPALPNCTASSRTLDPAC

T3: rat GALR1 (rat, UniProt Q62805)
T3 chain: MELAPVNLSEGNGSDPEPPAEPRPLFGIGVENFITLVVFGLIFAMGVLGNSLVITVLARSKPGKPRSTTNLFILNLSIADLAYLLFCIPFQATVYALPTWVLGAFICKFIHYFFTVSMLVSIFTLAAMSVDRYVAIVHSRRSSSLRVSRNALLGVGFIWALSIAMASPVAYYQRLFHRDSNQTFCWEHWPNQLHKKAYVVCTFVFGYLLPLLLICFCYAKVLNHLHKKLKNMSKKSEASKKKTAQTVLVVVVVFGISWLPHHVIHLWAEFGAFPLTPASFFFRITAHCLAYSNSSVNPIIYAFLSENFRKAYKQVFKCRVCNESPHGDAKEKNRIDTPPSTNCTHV

B1: human galanin (protein)
chain: KRGWTLNSAGYLLGPHAVGNHRSFSDKNGLTSKRELRPEDDMKPGSFDRSIPENNIMRTIIEFLSFLHLKEAGALDRLLDLPAAASSEDIERS

Experiments:
human GALR2 = target: T1, human GALR2; assay: competition, radioligand COS-7
rat GALR2 [1] = target: T2, rat GALR2; assay: competition, radioligand COS-7
rat GALR1 = target: T3, rat GALR1; assay: competition, radioligand COS-7
rat GALR2 [2] = target: T2, rat GALR2; assay: competition, radioligand CHO
rat GALR2 [3] = target: T2, rat GALR2; assay: competition, radioligand COS-7

Row | Binder | Ki (human GALR2) | Ki (rat GALR2 [2]) | also measured
1 | MARGSVILLAWLLLVATLSATLGLGMPTK [rat galanin] | 1 nM | – | Ki (rat GALR2 [1]): 0.52 nM
2 | MPRGCALLLASLLLASALSATLGLGSPVK [porcine galanin (1-29)] | 0.72 nM | – | Ki (rat GALR1): 0.457 nM
3 | B1 | – | 1.2 nM | –
4 | MPRGCALLL [porcine galanin 1-9] | – | > 1000 nM | –
5 | RGCALLLASLLLASALSATLGLGSPVK [porcine galanin (3-29)] | – | – | Ki (rat GALR2 [3]): > 100000 nM
6 | MPRGCALLLASLLLAS [galanin (1-16)] | 15 nM | – | Ki (rat GALR2 [3]): 1.74 nM
7 | LASLLLASALSATLGLGSPVK [porcine galanin 9-29] | – | > 1000 nM | –
8 | ALSATLGLGSPVK [porcine galanin 17-29] | – | > 1000 nM | –
